Measurements taken from patent US20240307564A1 (SUZHOU TRANSCENTA THERAPEUTICS, published 2024).

Columns and labels:
human CLDN18.2 [1] = biological target: human CLDN18.2 (human); experiment: cell-based or functional assay
human CLDN18.2 [2] = biological target: T1, human CLDN18.2 (human); experiment: KinExA on gastric cell lines
T1 construct: On HEK293-CLDN18.2 and MKN45-CLDN18.2 transfected cells and on the gastric cell lines NUGC4 and KATOIII (endogenous); also called Claudin18.2; claudin 18 splice variant 2

ADCC EC50 on NUGC4 cells (human CLDN18.2 [1]): ~0.59 µg/mL | ADCC reporter EC50 (human CLDN18.2 [1]): 0.05 µg/mL | CDC activity (human CLDN18.2 [1]): > 20 fold | fold higher affinity than IMAB362 (human CLDN18.2 [2]): > 8 fold
B1: 18B10-HaLa (antibody, human IgG1, kappa, V domains shown)
VH: QVQLVQSGAEVKKPGASVKVSCKASGYTFTGYNMNWVRQAPGQGLEWMGNIDPYYGGTSYNQKFKGRVTMTIDKSTSTVYMELSSLRSEDTAVYYCARMYHGNAFDYWGQGTTVTVSS
VL: DIVMTQSPDSLAVSLGERATINCKSSQSLLNSGNLKNYLTWYQQKPGQPPKLLIYWASTRKSGVPDRFSGSGSGTDFTLTISSLQAEDVAVYYCQNDYSYPLTFGGGTKVEIKR
notes: humanized; variable regions fused with human IgG1 and human kappa constant regions; also called humanized 18B10 HaLa
